# In US20160208003A1 (AFFITECH RESEARCH, published 2016):
# Values joined by “and” are separate entries in the source; they are usually repeats but may differ in a detail not shown here. Equal values may be shown once.
# T1: human CC chemokine receptor 4 (CCR4) (human, UniProt P51679 1-360)
# T1 construct: whole, on cells; Always presented on cells; also called CD194; human CCR4
# T1 sequence (looked up): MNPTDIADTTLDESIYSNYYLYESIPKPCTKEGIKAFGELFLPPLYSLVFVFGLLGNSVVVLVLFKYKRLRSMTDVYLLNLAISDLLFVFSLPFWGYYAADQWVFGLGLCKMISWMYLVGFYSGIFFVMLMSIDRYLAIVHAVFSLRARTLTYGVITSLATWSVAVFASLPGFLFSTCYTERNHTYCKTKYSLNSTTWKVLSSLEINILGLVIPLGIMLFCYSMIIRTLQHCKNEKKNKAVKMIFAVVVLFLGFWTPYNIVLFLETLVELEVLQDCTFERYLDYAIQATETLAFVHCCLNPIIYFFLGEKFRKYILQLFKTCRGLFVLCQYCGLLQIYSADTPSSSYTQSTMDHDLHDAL
# B1: thymus and activation regulated chemokine (TARC) (ligand, UniProt Q92583 24-94, looked up)
# chain: ARGTNVGRECCLEYFKGAIPLRKLKTWYQTSEDCSRDAIVFVTVQGRAICSDPNNKRVKNAVKYLQSLERS
# notes: also called CCL17; biotinylated TARC
# B2: macrophage-derived chemokine (MDC) (ligand, UniProt O00626 25-93, looked up)
# chain: GPYGANMEDSVCCRDYVRYRLPLRVVKHFYWTSDSCPRPGVVLLTFRDKEICADPRVPWVKMILNKLSQ
# notes: also called CCL22; biotinylated MDC
# Assays:
# [1] = biological target: T1, human CC chemokine receptor 4 (CCR4); assay: flow cytometry competition on DT-40-CCR4+ cells; unlabelled TARC titrated, competitor biotinylated TARC (ca. 20 nM)
# Protocol: (§1) The competition binding assays were performed with biotinylated MDC or biotinylated TARC on DT-40-CCR4+ and CCRF-CEM cells. DT40 and CCRF-CEM cells were cultured as described in Example 2. TARC and MDC were biotinylated using standard procedures. The biotinylation process causes some losses, so the concentrations of biotinylated MDC and TARC recited herein are approximate.
# (§2) The cells were harvested from culture flasks, washed 2 times with PBS (400×g, 5 min, 4° C.) and resuspended in PBS containing 0.2% BSA and 0.09% NaN3. 1×10^5 cells per well were aliquoted into V-shaped 96-well plates (Greiner Bio-One, Frikenhausen, Germany). Cells were centrifuged (400×g, 5 min, 4° C.) and resuspended in 50 μl IgG, single chain or unlabeled ligand (1:10 dilution series starting on 100/500/26, 4 μg/ml) mixed with a fixed concentration of biotinylated ligand (10 or 20 nM, see legend to FIG. 24). The cells were incubated for 2 hours at 4° C. and mixed with a pipette every 45 min. The cells were washed three times with 150 μl PBS with 0.2% BSA and 0.09% NaN3 and stained with 3 μg/ml streptavidin PE (BD Biosciences) for 45 minutes at 4° C. […] Apparent binding affinities (KD) were calculated according to the following equation derived from previously described methods (Kipriyanov et al, 1997b; Schodin & Kranz, 1993): […]
# [2] = biological target: T1, human CC chemokine receptor 4 (CCR4); assay: competition flow cytometry: unlabelled competitor against a fixed amount of biotinylated TARC; cell line not named on the sheet or in the legend
# [3] = biological target: T1, human CC chemokine receptor 4 (CCR4); assay: flow cytometry competition on CCRF-CEM cells; unlabelled TARC titrated, competitor biotinylated TARC (ca. 20 nM)
# Protocol: as §1, §2
# [4] = biological target: T1, human CC chemokine receptor 4 (CCR4); assay: competition flow cytometry on DT-40-CCR4+ cells: unlabelled competitor against ca. 20 nM biotinylated TARC, with 1 % BSA, streptavidin-PE [b]
# Protocol: as §1, §2
# [5] = biological target: T1, human CC chemokine receptor 4 (CCR4); assay: competition flow cytometry on CCRF-CEM cells: unlabelled competitor against ca. 20 nM biotinylated TARC, with 1 % BSA, streptavidin-PE [d]
# Protocol: as §1, §2
# [6] = biological target: T1, human CC chemokine receptor 4 (CCR4); assay: competition flow cytometry on DT-40-CCR4+ cells: unlabelled competitor against ca. 20 nM biotinylated TARC, without BSA, streptavidin-PE [a]
# Protocol: as §1, §2
# [7] = biological target: T1, human CC chemokine receptor 4 (CCR4); assay: flow cytometry competition on DT-40-CCR4+ cells; unlabelled MDC titrated, competitor biotinylated MDC (ca. 10 nM)
# Protocol: as §1, §2
# [8] = biological target: T1, human CC chemokine receptor 4 (CCR4); assay: calculated from the IC50; CCRF-CEM cells, competitor biotinylated MDC
# Protocol: as §1, §2
# [9] = biological target: T1, human CC chemokine receptor 4 (CCR4); assay: calculated from the IC50; DT-40-CCR4+ cells, competitor biotinylated MDC
# Protocol: as §1, §2
# [10] = biological target: T1, human CC chemokine receptor 4 (CCR4); assay: competition flow cytometry on CCRF-CEM cells: unlabelled competitor against ca. 20 nM biotinylated TARC, without BSA, streptavidin-PE [c]
# Protocol: as §1, §2
# [11] = biological target: T1, human CC chemokine receptor 4 (CCR4); assay: competition flow cytometry: unlabelled competitor against a fixed amount of biotinylated MDC; cell line not named on the sheet or in the legend
Binder,IC50 [1],IC50 (read off the curve) [2] [nM],IC50 [3],IC50 (read off the curve) [4] [nM],IC50 (read off the curve) [5] [nM],IC50 (read off the curve) [6] [nM],IC50 [7] [nM],Kd [8] [nM],Kd [9] [nM],IC50 (read off the curve) [10] [nM],IC50 (read off the curve) [11] [nM]
B1,40.9 nM and 34.6 nM,~0.3,43.4 nM and 31.8 nM,,,,,,,,
B2,,,,~30,~7,~30,10.8,0.18,0.19,~60,~20
